Measured values published in the supplement of paper PMC9112550, “Optimization of the antimicrobial peptide Bac7 by deep mutational scanning” (BMC Biology, 2022).

Test system: Escherichia coli TOP10
Test: shrunken log2 fold change of peptide-encoding DNA abundance (4.5 h post-induction vs induction); higher = less antimicrobial activity (less host growth inhibition)
Conditions: time post-induction: 4.5 h; library: site-saturation at positions 5, 18, 19, 20
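Note: peptides expressed intracellularly from a pBAD plasmid library in pooled LB shake-flask culture, induced with 0.3% L-arabinose, DNA abundance read by NGS, three biological replicates, DESeq2 with apeglm shrinkage.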

| Sequence | shrunken log2 fold change |
| --- | --- |
| RRIRFRPPRLPRPRPRPLDTPRP | 0.0445 |
| RRIRFRPPRLPRPRPRPLFCPRP | -0.462 |
| RRIRFRPPRLPRPRPRPLFDPRP | -0.578 |
| RRIRFRPPRLPRPRPRPLFTPRP | -0.239 |
| RRIRFRPPRLPRPRPRPLGPPRP | 0.148 |
| RRIRFRPPRLPRPRPRPLHVPRP | -0.208 |
| RRIRFRPPRLPRPRPRPLIQPRP | -0.289 |
| RRIRFRPPRLPRPRPRPLKAPRP | 0.693 |
| RRIRFRPPRLPRPRPRPLLFPRP | -0.315 |
| RRIRFRPPRLPRPRPRPLLGPRP | 0.123 |
| RRIRFRPPRLPRPRPRPLLYPRP | -1.01 |
| RRIRFRPPRLPRPRPRPLMQPRP | -0.0117 |
| RRIRFRPPRLPRPRPRPLNGPRP | 0.073 |
| RRIRFRPPRLPRPRPRPLNQPRP | -0.282 |
| RRIRFRPPRLPRPRPRPLPEPRP | 0.224 |
| RRIRFRPPRLPRPRPRPLPKPRP | 0.55 |
| RRIRFRPPRLPRPRPRPLQSPRP | 0.11 |
| RRIRFRPPRLPRPRPRPLRYPRP | -0.192 |
| RRIRFRPPRLPRPRPRPLSGPRP | -0.233 |
| RRIRFRPPRLPRPRPRPLTTPRP | 0.0259 |
| RRIRFRPPRLPRPRPRPLVWPRP | 0.0758 |
| RRIRFRPPRLPRPRPRPLWLPRP | -0.0557 |
| RRIRFRPPRLPRPRPRPLYQPRP | -0.374 |
| RRIRFRPPRLPRPRPRPMARPRP | -0.0235 |
| RRIRFRPPRLPRPRPRPMAYPRP | -0.0672 |

| Sequence | shrunken log2 fold change |
| --- | --- |
| RRIRFRPPRLPRPRPRPMCDPRP | 0.226 |
| RRIRFRPPRLPRPRPRPMECPRP | -0.0638 |
| RRIRFRPPRLPRPRPRPMEQPRP | -0.00146 |
| RRIRFRPPRLPRPRPRPMFRPRP | 0.0591 |
| RRIRFRPPRLPRPRPRPMFSPRP | -0.0614 |
| RRIRFRPPRLPRPRPRPMFYPRP | -1.51 |
| RRIRFRPPRLPRPRPRPMGHPRP | -0.184 |
| RRIRFRPPRLPRPRPRPMHMPRP | -0.011 |
| RRIRFRPPRLPRPRPRPMHWPRP | 0.325 |
| RRIRFRPPRLPRPRPRPMIDPRP | -0.209 |
| RRIRFRPPRLPRPRPRPMINPRP | -0.208 |
| RRIRFRPPRLPRPRPRPMKLPRP | -0.0666 |
| RRIRFRPPRLPRPRPRPMLFPRP | -0.0947 |
| RRIRFRPPRLPRPRPRPMLGPRP | -0.055 |
| RRIRFRPPRLPRPRPRPMLWPRP | 0.165 |
| RRIRFRPPRLPRPRPRPMMDPRP | 0.0995 |
| RRIRFRPPRLPRPRPRPMMSPRP | -0.0228 |
| RRIRFRPPRLPRPRPRPMNRPRP | -0.0364 |
| RRIRFRPPRLPRPRPRPMPVPRP | -0.0124 |
| RRIRFRPPRLPRPRPRPMREPRP | 1.08 |
| RRIRFRPPRLPRPRPRPMSYPRP | -0.138 |
| RRIRFRPPRLPRPRPRPMTTPRP | 0.000405 |
| RRIRFRPPRLPRPRPRPMWNPRP | -0.363 |
| RRIRFRPPRLPRPRPRPMYRPRP | -0.29 |
| RRIRFRPPRLPRPRPRPNALPRP | -0.347 |

| Sequence | shrunken log2 fold change |
| --- | --- |
| RRIRFRPPRLPRPRPRPNAVPRP | -0.0327 |
| RRIRFRPPRLPRPRPRPNCAPRP | 0.154 |
| RRIRFRPPRLPRPRPRPNCQPRP | -0.508 |
| RRIRFRPPRLPRPRPRPNEFPRP | -0.0262 |
| RRIRFRPPRLPRPRPRPNGHPRP | -0.0454 |
| RRIRFRPPRLPRPRPRPNGVPRP | -0.0018 |
| RRIRFRPPRLPRPRPRPNHDPRP | -0.332 |
| RRIRFRPPRLPRPRPRPNHFPRP | -0.0292 |
| RRIRFRPPRLPRPRPRPNHHPRP | -1.02 |
| RRIRFRPPRLPRPRPRPNICPRP | -0.252 |
| RRIRFRPPRLPRPRPRPNKCPRP | -0.273 |
| RRIRFRPPRLPRPRPRPNKNPRP | -0.384 |
| RRIRFRPPRLPRPRPRPNLGPRP | -0.0272 |
| RRIRFRPPRLPRPRPRPNLMPRP | -0.144 |
| RRIRFRPPRLPRPRPRPNLYPRP | -0.716 |
| RRIRFRPPRLPRPRPRPNMMPRP | -0.444 |
| RRIRFRPPRLPRPRPRPNMPPRP | -0.443 |
| RRIRFRPPRLPRPRPRPNMYPRP | -0.712 |
| RRIRFRPPRLPRPRPRPNNMPRP | -0.699 |
| RRIRFRPPRLPRPRPRPNQFPRP | -0.0599 |
| RRIRFRPPRLPRPRPRPNQNPRP | -0.443 |
| RRIRFRPPRLPRPRPRPNQVPRP | -1.05 |
| RRIRFRPPRLPRPRPRPNQYPRP | -1.01 |
| RRIRFRPPRLPRPRPRPNREPRP | -0.181 |
| RRIRFRPPRLPRPRPRPNSSPRP | -0.247 |

| Sequence | shrunken log2 fold change |
| --- | --- |
| RRIRFRPPRLPRPRPRPNTPPRP | -0.263 |
| RRIRFRPPRLPRPRPRPNTYPRP | -0.499 |
| RRIRFRPPRLPRPRPRPNVRPRP | 0.0987 |
| RRIRFRPPRLPRPRPRPNWDPRP | -0.269 |
| RRIRFRPPRLPRPRPRPNYGPRP | -0.125 |
| RRIRFRPPRLPRPRPRPPACPRP | 0.628 |
| RRIRFRPPRLPRPRPRPPDMPRP | -0.147 |
| RRIRFRPPRLPRPRPRPPENPRP | 0.102 |
| RRIRFRPPRLPRPRPRPPFNPRP | -0.245 |
| RRIRFRPPRLPRPRPRPPFPPRP | 0.454 |
| RRIRFRPPRLPRPRPRPPHGPRP | 0.364 |
| RRIRFRPPRLPRPRPRPPINPRP | -0.406 |
| RRIRFRPPRLPRPRPRPPKLPRP | 0.0996 |
| RRIRFRPPRLPRPRPRPPLEPRP | 0.288 |
| RRIRFRPPRLPRPRPRPPMAPRP | 0.277 |
| RRIRFRPPRLPRPRPRPPPDPRP | 1.3 |
| RRIRFRPPRLPRPRPRPPQMPRP | 0.333 |
| RRIRFRPPRLPRPRPRPPRPPRP | 0.905 |
| RRIRFRPPRLPRPRPRPPTKPRP | 0.709 |
| RRIRFRPPRLPRPRPRPPTVPRP | 0.499 |
| RRIRFRPPRLPRPRPRPPVEPRP | 0.143 |
| RRIRFRPPRLPRPRPRPPVIPRP | 0.0684 |
| RRIRFRPPRLPRPRPRPPWDPRP | 0.195 |
| RRIRFRPPRLPRPRPRPPWLPRP | 0.509 |
| RRIRFRPPRLPRPRPRPPYVPRP | -0.36 |

| Sequence | shrunken log2 fold change |
| --- | --- |
| RRIRFRPPRLPRPRPRPQANPRP | -0.0788 |
| RRIRFRPPRLPRPRPRPQATPRP | -0.248 |
| RRIRFRPPRLPRPRPRPQDHPRP | -0.391 |
| RRIRFRPPRLPRPRPRPQENPRP | 0.133 |
| RRIRFRPPRLPRPRPRPQFTPRP | -0.362 |
| RRIRFRPPRLPRPRPRPQFVPRP | -0.434 |
| RRIRFRPPRLPRPRPRPQFWPRP | 0.206 |
| RRIRFRPPRLPRPRPRPQGMPRP | -0.0535 |
| RRIRFRPPRLPRPRPRPQHNPRP | -0.781 |
| RRIRFRPPRLPRPRPRPQINPRP | -0.239 |
| RRIRFRPPRLPRPRPRPQIYPRP | -1.01 |
| RRIRFRPPRLPRPRPRPQKKPRP | -0.0897 |
| RRIRFRPPRLPRPRPRPQLQPRP | 0.0569 |
| RRIRFRPPRLPRPRPRPQLSPRP | -0.0854 |
| RRIRFRPPRLPRPRPRPQLWPRP | 0.338 |
| RRIRFRPPRLPRPRPRPQMDPRP | 0.0317 |
| RRIRFRPPRLPRPRPRPQPFPRP | -0.0783 |
| RRIRFRPPRLPRPRPRPQPYPRP | -0.34 |
| RRIRFRPPRLPRPRPRPQQNPRP | 0.383 |
| RRIRFRPPRLPRPRPRPQRKPRP | 0.089 |
| RRIRFRPPRLPRPRPRPQTDPRP | -0.21 |
| RRIRFRPPRLPRPRPRPQTGPRP | -0.152 |
| RRIRFRPPRLPRPRPRPQTWPRP | -0.743 |
| RRIRFRPPRLPRPRPRPQVIPRP | -0.364 |
| RRIRFRPPRLPRPRPRPQVNPRP | -0.0623 |

| Sequence | shrunken log2 fold change |
| --- | --- |
| RRIRFRPPRLPRPRPRPQVWPRP | 0.135 |
| RRIRFRPPRLPRPRPRPQWNPRP | -0.345 |
| RRIRFRPPRLPRPRPRPQYPPRP | 0.041 |
| RRIRFRPPRLPRPRPRPQYQPRP | -0.118 |
| RRIRFRPPRLPRPRPRPQYRPRP | -0.171 |
| RRIRFRPPRLPRPRPRPRCTPRP | 0.0551 |
| RRIRFRPPRLPRPRPRPRDQPRP | 0.0987 |
| RRIRFRPPRLPRPRPRPREVPRP | 0.199 |
| RRIRFRPPRLPRPRPRPRFCPRP | 0.00666 |
| RRIRFRPPRLPRPRPRPRFLPRP | -0.421 |
| RRIRFRPPRLPRPRPRPRGEPRP | 0.125 |
| RRIRFRPPRLPRPRPRPRHEPRP | 0.197 |
| RRIRFRPPRLPRPRPRPRHGPRP | 0.155 |
| RRIRFRPPRLPRPRPRPRHQPRP | 0.0747 |
| RRIRFRPPRLPRPRPRPRHTPRP | -0.00169 |
| RRIRFRPPRLPRPRPRPRICPRP | 0.0102 |
| RRIRFRPPRLPRPRPRPRKAPRP | 0.182 |
| RRIRFRPPRLPRPRPRPRKTPRP | 0.0798 |
| RRIRFRPPRLPRPRPRPRLGPRP | 0.347 |
| RRIRFRPPRLPRPRPRPRLIPRP | -0.261 |
| RRIRFRPPRLPRPRPRPRNNPRP | -0.381 |
| RRIRFRPPRLPRPRPRPRPMPRP | 0.856 |
| RRIRFRPPRLPRPRPRPRQHPRP | 0.0181 |
| RRIRFRPPRLPRPRPRPRRPPRP | 0.668 |
| RRIRFRPPRLPRPRPRPRSHPRP | -0.181 |
